First the molecules themselves.
B1: HspB8-WT (natural protein, UniProt Q9UJY1 1-196, looked up)
chain: MADGQMPFSCHYPSRLRRDPFRDSPLSSRLLDDGFGMDPFPDDLTASWPDWALPRLSSAWPGTLRSGMVPRGPTATARFGVPAEGRTPPPFPGEPWKVCVNVHSFKPEELMVKTKDGYVEVSGKHEEKQQEGGIVSKNFTKKIQLPAEVDPVTVFASLSPEGLLIIEAPQVPPYSTFGESSFNNELPQDSQEVTCT
notes: small heat shock protein HspB8; IDR printed as AA1-71 and alpha-crystallin domain as AA72-196; The article's keywords name Human as organism; also called small heat shock protein HspB8; source: E. coli BL21 Codon RIL, purified (GST, PreScission cleavage, reverse GST, ResourceQ); not shown: GST, N-terminal, cleaved
B2: HspB8-K141E (natural protein, UniProt Q9UJY1 1-196, looked up)
chain: B1 chain with K141E
notes: small heat shock protein HspB8 with the Charcot-Marie Tooth disease-associated mutation K141E in the alpha-crystallin domain; Same construct as m2 with K141E; also called K141E mutant; HspB8-K141E mutant; source: E. coli BL21 Codon RIL, purified (GST, PreScission cleavage, reverse GST, ResourceQ); not shown: GST, N-terminal, cleaved
B3: FUS-G156E-GFP (FUSm) (natural protein, human, UniProt P35637 1-526, looked up)
chain: MASNDYTQQATQSYGAYPTQPGQGYSQQSSQPYGQQSYSGYSQSTDTSGYGQSSYSSYGQSQNTGYGTQSTPQGYGSTGGYGSSQSSQSSYGQQSSYPGYGQQPAPSSTSGSYGSSSQSSSYGQPQSGSYSQQPSYGGQQQSYGQQQSYNPPQGYEQQNQYNSSSGGGGGGGGGGNYGQDQSSMSSGGGSGGGYGNQDQSGGGGSGGYGQQDRGGRGRGGSGGGGGGGGGGYNRSSGGYEPRGRGGGRGGRGGMGGSDRGGFNKFGGPRDQGSRHDSEQDNSDNNTIFVQGLGENVTIESVADYFKQIGIIKTNKKTGQPMINLYTDRETGKLKGEATVSFDDPPSAKAAIDWFDGKEFSGNPIKVSFATRRADFNRGGGNGRGGRGRGGPMGRGGYGGGGSGGGGRGGFPSGGGGGGGQQRAGDWKCPNPTCENMNFSWRNECNQCKAPKPDGPGGGPGGSHMGGNYGDDRRGGRGGYDRGGYRGRGGDRGGFRGGRGGGDRGGFGPGKMDSRGEHRQDRRERPY
notes: FUS (fused in sarcoma), human, UniProt P35637, with G156E; also called FUSm-GFP; source: Sf9 cells, purified as described (Patel et al., 2015); not shown: 5 AA tag used for purification, N-terminal, kept; GFP, C-terminal, kept

The data set “FUS-G156E-GFP (FUSm)” concerns the target B3. The experiment in a line: cross-linking; XL-MS of FUSm (or FUSm_K9) mixed with the partner under condensate-inducing low salt (75 mM): low-salt mixture or dense phase separated by centrifugation; H12/D12 DSS, 30 min, 37°C; also 3 hr after formation and with an RNA oligonucleotide. The note with it: both partners purified.
Data set [1] concerns the molecule itself. The experiment in a line: cross-linking; quantitative XL-MS of FUSm alone: low salt (75 mM KCl, condensates) against high salt (500 mM KCl, no phase separation); 1.9 mM H12/D12 DSS, 30 min, 37°C.
The next data set deals with T1, Taf-15 (UniProt Q92804 1-592).
T1 construct: stress granule protein Taf-15; no methods for its production; also called stress granule protein Taf-15
T1 sequence (Q92804 whole entry): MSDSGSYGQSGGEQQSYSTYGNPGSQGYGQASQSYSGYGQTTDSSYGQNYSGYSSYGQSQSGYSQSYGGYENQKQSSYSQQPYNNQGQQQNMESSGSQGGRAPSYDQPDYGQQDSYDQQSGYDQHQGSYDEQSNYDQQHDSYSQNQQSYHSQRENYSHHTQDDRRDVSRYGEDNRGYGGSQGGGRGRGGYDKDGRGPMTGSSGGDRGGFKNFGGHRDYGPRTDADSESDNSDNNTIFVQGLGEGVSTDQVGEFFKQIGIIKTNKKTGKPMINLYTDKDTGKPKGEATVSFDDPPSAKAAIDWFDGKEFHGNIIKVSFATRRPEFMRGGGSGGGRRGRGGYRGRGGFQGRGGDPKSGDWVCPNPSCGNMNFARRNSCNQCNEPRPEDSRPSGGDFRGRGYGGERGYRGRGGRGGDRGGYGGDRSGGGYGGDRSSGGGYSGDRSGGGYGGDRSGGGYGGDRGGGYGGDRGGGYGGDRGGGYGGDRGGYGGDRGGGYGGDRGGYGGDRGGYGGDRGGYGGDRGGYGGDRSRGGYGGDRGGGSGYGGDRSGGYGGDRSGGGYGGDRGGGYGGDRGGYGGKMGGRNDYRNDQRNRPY
The experiment in a line: MST; 33 nM FUSm, partner titrated; non-phase separating conditions (500 mM KCl). The settings on record: both partners purified.

Positions count from the first letter of the chain named. Names and notes keep the numbering of the source.

Binding result and Kd data for three molecules are collected here from publication PMC8510580, “HspB8 prevents aberrant phase transitions of FUS by chaperoning its folded RNA-binding domain” (eLife, 2021).

For orientation: Kd means the concentration at which binding is half-saturated. A higher Kd goes with a looser complex.

Turning to B1, the binding result with FUS-G156E-GFP (FUSm) was “binds”.

For B2, in the data set with FUS-G156E-GFP (FUSm), the binding result is listed as “binds”.

Consider B3, for which, in data set [1], the binding result is listed as “binds”. This molecule had a Kd in the data set with Taf-15 of 260 nM.
